# Source: patent US20040259198
# Tested on: recombinant human MAT II β subunit protein with N-terminal poly-His tag, expressed in E. coli from pQE-30 (Clone 5)
substance,measurement,value
recombinant human MAT II α2 subunit expressed in E. coli from the pQE-30 vector,Km (L-Met),the cloned protein lowered the Km (L-Met) of the recombinant human MAT II α2 subunit from 80 µM to 34 µM
same,Km for L-Met in the presence of the MAT II β subunit,"another kinetic form with a Km for L-Met of 32-34 µM was also apparent, in each case"
same,Km of MAT for L-methionine,This association changed the kinetic properties of the enzyme and lowered the Km of MAT for L-methionine
